Reference: PMC4555475

Key:
[1] = biological target: KpBest, bacterial homolog of human bestrophin 1 (not stated (bacterial))
[2] = biological target: voltage-gated Ca^2+ channel complex; test: FRET or BRET

| stoichiometry N [2] | Substance | stoichiometry N [1] |
| --- | --- | --- |
|  | KpBest, bacterial homolog of human bestrophin 1 (natural protein) | 5 |
| 1 | calmodulin (from UniProt P0DP23 1-149) (natural protein) |  |
